Assay [1] addresses T1, HUMAN B7H3 (Biacore analyte) (human, UniProt Q5ZPR3 29-461, limits assumed).
T1 construct: also called hB7H3
T1 sequence (looked up): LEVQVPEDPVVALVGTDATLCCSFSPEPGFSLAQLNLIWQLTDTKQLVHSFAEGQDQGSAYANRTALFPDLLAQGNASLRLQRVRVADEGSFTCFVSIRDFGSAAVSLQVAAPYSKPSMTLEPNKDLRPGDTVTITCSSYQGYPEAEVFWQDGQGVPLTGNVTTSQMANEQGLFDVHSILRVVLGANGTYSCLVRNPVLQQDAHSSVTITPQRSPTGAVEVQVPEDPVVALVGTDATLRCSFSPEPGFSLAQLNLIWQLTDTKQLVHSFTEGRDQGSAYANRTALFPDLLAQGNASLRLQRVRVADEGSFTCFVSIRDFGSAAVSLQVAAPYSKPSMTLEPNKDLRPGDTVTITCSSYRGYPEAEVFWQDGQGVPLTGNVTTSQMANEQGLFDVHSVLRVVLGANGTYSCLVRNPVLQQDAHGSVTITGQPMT
The experiment in a line: SPR, Biacore 8K, antibody captured, B7H3 as analyte, 1:1 binding.

Assay [2] deals with T2, human CD276 protein (human, UniProt Q5ZPR3 29-534).
T2 sequence (looked up): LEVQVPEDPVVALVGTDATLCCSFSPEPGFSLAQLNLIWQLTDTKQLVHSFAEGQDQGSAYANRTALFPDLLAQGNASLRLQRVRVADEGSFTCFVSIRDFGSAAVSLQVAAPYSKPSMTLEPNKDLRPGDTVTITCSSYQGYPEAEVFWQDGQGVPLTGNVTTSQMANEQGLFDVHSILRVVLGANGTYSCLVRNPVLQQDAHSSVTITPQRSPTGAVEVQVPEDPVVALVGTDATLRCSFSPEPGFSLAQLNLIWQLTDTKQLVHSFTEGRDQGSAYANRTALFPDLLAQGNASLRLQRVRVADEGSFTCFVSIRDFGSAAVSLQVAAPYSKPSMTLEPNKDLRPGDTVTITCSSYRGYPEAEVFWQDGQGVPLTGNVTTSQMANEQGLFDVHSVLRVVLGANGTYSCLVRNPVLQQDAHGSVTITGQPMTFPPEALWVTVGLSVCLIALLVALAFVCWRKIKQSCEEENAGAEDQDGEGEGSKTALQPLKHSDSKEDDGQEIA
Nature of the assay: cell-based or functional assay.

Assay [3] addresses T2, human CD276 protein. The experiment in a line: FACS on SKOV3 cells. The source says:
Sequences of 31 mouse antibodies from Table 5 were selected to generate and produce human IgG1 chimeric antibodies. The binding affinity of these antibodies and bench mark antibody, Enoblituzumab (see U.S. Pat. No. 8,802,091, MGA271, specifically with a construct designated as hBRCA84D-2) and MGC018 (an antibody-drug-conjugate, in which the mAb MGA017 (human IgG1) is conjugated via a cleavable linker to the prodrug seco-DUocarmycin hydroxyBenzamide Azaindole (DUBA), an alkylating agent that can damage DNA in both dividing and non-dividing cells, thereby causing cell death) with human patient derived ovarian cancer cell line, SKOV3, was determined by FACS analysis.
1. Digested cells using Trypsin (1×); Centrifuged the harvested cells at 300 g for 3 min and discarding the supernatant. […] 2. Washed the cells 2 times with FACS buffer by centrifuging at 300 g for 3 min and discarding the supernatant. [0445] 3. […] Kept the cells in dark for FACS analysis.

For assay [4], the target named is T2, human CD276 protein. The experiment in a line: cell-based or functional assay. The source holds these as a separate data set.
The target of assay [5] is T2, human CD276 protein. The experiment in a line: cell-based or functional assay. The source holds these as a separate data set.
The target of assay [6] is T1, HUMAN B7H3 (Biacore analyte). The experiment in a line: SPR, Biacore 8K, antibody captured, B7H3 as analyte, 1:1 binding. This is another data set of the same source.

Residue numbers refer to the chain shown, from its start. Read-outs that look alike come from different tables or passages of the source.

The source of these data is patent publication US20240400689A1 (ANTENGENE BIOLOGICS, published 2024).

B1: 27-F8-E10-E11 (human IgG1 chimeric antibody) (antibody, V domains shown)
VH: EVQLQQSGPELVKPGASVKISCKTSGYTFTEYAMHWVKQSHGKILEWIGGINPNIGGTTYNQKFKDKATLTVDKSSSTASMELRSLTSEDSAVYYCARFLVPSTEGFTYWGQGTLVTVSA
VL: QIVLTQSPAIMSASPGEKVTMTCSASSSVSYMHWYQQKSGTSPKRWIYDTSRVASGVPARFSGSGSGTSYSLTISSMEAEDAATYYCQQWSSNPLTFGAGTKLELK
notes: human IgG1 chimeric antibody of the mouse clone
For the molecule B1, in assay [1], the Kd (as a rule, a measure of binding affinity in units of concentration) is 0.621 nM; the koff (commonly the rate constant with which the complex falls apart) was determined as 0.000173 s⁻¹; the kon (commonly the second-order rate constant of association) was 278000 M⁻¹ s⁻¹. In assay [2], the “EC50 of antibody induced ADCC effect on SKOV3” value (from here on “EC50 … on SKOV3”) amounted to 0.0238 µg/mL. In addition, in assay [3], the midpoint of the response, the EC50, lay at 2.26 µg/mL and the “MFI (Max)” value was found to be 3220.

B2: 16-G3-D10-C10 (human IgG1 chimeric antibody) (antibody, V domains shown)
VH: QIQLVQSGPELKKPGETVKISCKASGYTFRNYGMNWVKQGPGKDLKWMGWINPYTGEPTYIGDFKGRFAFSLETSANSAYLQINNLNNEDMATYFCARDDGYWYTMDYWGQGTSVTVSS
VL: DVVMTQTPPSLPVSLGDQASIPCRSSQSLVHSNGITYLHWYLQKPGQSPKLLIYKVSNRFSGVPDRFSGSGSGTDFTLKISRVEAEDLGVYFCSQSTHVPWTFGGGTKLEIK
notes: as for B1
In assay [1], B2 showed a Kd of 1.16 nM, a koff of 0.000214 s⁻¹ and a kon of 185000 M⁻¹ s⁻¹. Moreover, the “EC50 … on SKOV3” value in assay [2] was determined as 0.0419 µg/mL. In addition, in assay [3], the midpoint of the response, the EC50, lay at 1.31 µg/mL and the “MFI (Max)” value amounted to 3180. Moreover, in assay [4], the “EC50 of antibody induced CDC effect” value came out at 1.43 nM and the “Top cytotoxicity (%), CDC” value stood at 93.6%.

B3: 22-E11-C3-F2 (human IgG1 chimeric antibody) (antibody, V domains shown)
VH: QIQLVQSGPELKRPGETVKISCKASGYSFTNYGMNWVKQAPGKGLKWMGWINPYTGEPTYADDFKGRFAMSLETSASAAYLQINNLKNEDMATYFCGRDDGYHYTMNYWGQGTSVTVSS
VL: B2 VL with T7P, P9L, P22S, V30I, I35D, N58I, H98Y
notes: as for B1
Take B3: the “EC50 … on SKOV3” value in assay [2] is 0.0179 µg/mL. Also, in assay [5], the “IC50 of indirect ADC cytotoxicity on SKOV3” value (“IC50” below) came to 0.016 nM. For the same molecule, in assay [3], the EC50 (usually the concentration at which the effect is half-maximal) was 0.523 µg/mL and the “MFI (Max)” value is 5540.

B4: 8-C3-E3-F3 (human IgG1 chimeric antibody) (antibody, V domains shown)
VH: EVQLVESGGGLVQPGGSLKLSCAASGFTFSNYGLSWVRLTPDKRLEVVATIGSYGGNTYYPDSVKGRFTISRDNAKNTLYLQMSSLKSEDTAIYYCARDIYYGNSEAWFAYWGQGTLVTVSA
VL: DIVMTQAAFSNPVTLGTSASISCRSSKSLLHSNGITYLYWYLQKPGQSPQLLIYQMSNLASGVPDRFSSSGSETDFTLRISRVEAEDVGVYYCAQNLELPWTFGGGTKLEIK
notes: as for B1
In assay [1], B4 returned a Kd of 0.444 nM, a koff of 0.00044 s⁻¹ and a kon of 990000 M⁻¹ s⁻¹. In assay [2], the “EC50 … on SKOV3” value was found to be 0.111 µg/mL. The “IC50” value in assay [5] was determined as 0.012 nM. Moreover, in assay [3], a half-maximal response (EC50) required 0.643 µg/mL and the “MFI (Max)” value amounted to 2880.

B5: 13-E4-G9-A4 (human IgG1 chimeric antibody) (antibody, V domains shown)
VH: EVMLVESGGGLVKPGGSLKFSCAASGFTFITYAMSWVRQTPEKRLEWVATISGGGIDTYYPDSVKGRFTISRDNAKNTLYLQVNSLRSEDTAMYYCTRQGSQGWGAMDYWGQGTSVTVSS
VL: QIVLTQSPPIMSASPGERVTMTCRASSRVSFMHWYQQKSGTSPRRWIYETSKLASGVPDRFSGSVSGTSYSLTISSMEAEDAATYYCQQWSSNPLTFGAGTKLELK
notes: as for B1
For B5, the “EC50 … on SKOV3” value in assay [2] is 0.876 µg/mL. Besides, the “IC50” value in assay [5] is 0.021 nM. Besides, in assay [3], the EC50 was determined as 1.77 µg/mL and the “MFI (Max)” value worked out at 3080.

B6: 10-G6-C4-B2_hVH2-VL1_PTM (antibody, V domains shown)
VH: EVQLVESGGGLVQPGGSLRLSCATSGFTLSDYYMSWVRQAPGKGLEWVSFMRNKANAYTTEYSASVRGRFTISRDTSKSTIYLQMNSLRAEDTAVYYCVRDREGRPFAYWGQGTLVTVSS
VL: DIVMTQSPDSLAVSLGERATINCKSSQSLLNAINQKNFLTWYQQKPGQPPKLLIYWASTRESGVPDRFSGSGSGTDFTLTISSLQAEDLAVYYCQNDYTYPLTFGQGTKLEIK
notes: humanized, PTM-optimized antibody from 10-G6-C4-B2
For the molecule B6, in assay [6], the Kd turned out to be 0.851 nM, the koff came to 7.26e-05 s⁻¹ and the kon stood at 85300 M⁻¹ s⁻¹.

B7: 10-G6-C4-B2_hVH3-VL3_PTM (antibody, V domains shown)
VH: B6 VH with S49G, T80S, R89K, A90T
VL: DIQMTQSPSSLSASVGDRVTITCKSSQSLLNAINQKNFLTWYQQKPGKAPKLLIYWASTRESGVPSRFSGSGSGTDFTLTISSLQPEDLATYYCQNDYTYPLTFGQGTKLEIK
notes: as for B6
B7: in assay [6], binding was put at a Kd of 0.0087 nM, the koff was 1.02e-06 s⁻¹ and the kon came out at 118000 M⁻¹ s⁻¹.

B8: 10-G6-C4-B2_hVH4-VL2_PTM (antibody, V domains shown)
VH: B6 VH with V12I, A40P
VL: DIVMTQSPLSLPVTPGEPASISCKSSQSLLNAINQKNFLTWYLQKPGQSPQLLIYWASTRESGVPDRFSGSGSGTDFTLKISRVEAEDLGVYYCQNDYTYPLTFGQGTKLEIK
notes: as for B6
In the case of B8, in assay [6], the Kd is 1.35 nM, the koff is 7.12e-05 s⁻¹ and the kon was 52700 M⁻¹ s⁻¹.

B9: 10-G6-C4-B2_hVH5-VL3_PTM (antibody, V domains shown)
VH: B6 VH with G16R, A23T, S49G, T80I, R89K, A90T
VL: B7 VL
notes: as for B6
In assay [6], B9 had a Kd of 0.00692 nM, a koff of 1.01e-06 s⁻¹ and an on-rate (kon) of 146000 M⁻¹ s⁻¹.

B10: 10-G6-C4-B2_hVH5-VL1_PTM (antibody, V domains shown)
VH: B6 VH with G16R, A23T, S49G, T80I, R89K, A90T
VL: B6 VL
notes: as for B6
In the case of B10, in assay [6], the Kd came to 0.0929 nM, the koff turned out to be 1.37e-05 s⁻¹ and the kon was determined as 147000 M⁻¹ s⁻¹.

B11: 10-G6-C4-B2_hVH4-VL1_PTM (antibody, V domains shown)
VH: B6 VH with V12I, A40P
VL: B6 VL
notes: as for B6
With B11, in assay [6], the Kd was determined as 1.73 nM, the koff came to 0.000155 s⁻¹ and the kon is 89600 M⁻¹ s⁻¹.

B12: 10-B9-D10-A12 (human IgG1 chimeric antibody) (antibody, V domains shown)
VH: EVQLQESGPELVRPGVSVKISCKGSGYTFTDYTMHWVKLSHAKSLEWIGVISTYYGNTNYNQKFKGKATLTVDKSSSTAYMELARLTSEDSAIYYCARASYGSGYGPYYWYFDVWGAGTTVTVSS
VL: DIQMTQSPASLFASVGETVTITCRASEKIYSYLAWYFQKQGKSPQFLVYNANALAEGVPSRFSGSGSGTQFSLKINSLQPEDFGTYYCQHHYGTPVTFGAGSKLELK
notes: as for B1
On to B12, for which, in assay [1], binding was put at a Kd of 0.752 nM, the koff was 0.000282 s⁻¹ and the kon was determined as 375000 M⁻¹ s⁻¹. The “EC50 … on SKOV3” value in assay [2] came to 0.259 µg/mL. Besides, the “IC50” value in assay [5] is 0.021 nM. Moreover, in assay [3], the EC50 worked out at 2.08 µg/mL and the “MFI (Max)” value turned out to be 3880.

B13: 20-C5-D7-D3 (human IgG1 chimeric antibody) (antibody, V domains shown)
VH: EVQLVESGGDLVKPGGSLKLSCAASGFTFRSYGMSWVRQTPDKRLEWVATISGGGNYTYYPDSVKGRFTISRDNAKNTLYLQMSSLKSEDTAMYYCARHEGLPLDYWGQGTTLTVSS
VL: DIQMTQSPASLSASVGETVTITCRASENIYSYLAWYQQKQGKSPQLLVYNAKTLAEGVPSRFSGSGSGTQFSLKINSLQPEDFGNFYCQHHYGTPTWTFGGGTKLEIK
notes: as for B1
As for B13, in assay [1], binding was put at a Kd of 0.644 nM, the koff stood at 0.000416 s⁻¹ and the kon worked out at 645000 M⁻¹ s⁻¹. Further, the “EC50 … on SKOV3” value in assay [2] worked out at 0.069 µg/mL. Further, in assay [5], the “IC50” value came out at 0.007 nM. Besides, in assay [3], the 50% effective concentration (EC50) was determined as 0.941 µg/mL and the “MFI (Max)” value turned out to be 2310.
